# In the nanobody polyreactivity screen of Harvey et al. (2022):
# Assay: yeast display, Sf9 membrane polyspecificity reagent, FACS + sequencing; frameworks hold sequencing errors
# How it was run: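 Synthetic nanobody libraries on Saccharomyces cerevisiae BJ5465 were galactose-induced for 36–48 hours, stained 1 hour at 4 °C with 10% biotinylated, detergent-solubilized Sf9 membrane reagent and enriched on streptavidin microbeads. FACS then separated cells into low and high (top ~1%) gates by anti-HA (expression) and streptavidin (reagent binding) fluorescence. Genes were colony-PCR amplified, MiSeq 2 × 250 sequenced and CDR-length filtered. A clone's polyreactivity label is that of its gate of origin.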
row,Sequence,polyreactivity (PSR sort gate)
1,QVQLVESGGGLVQAGGSLRLSCAASGFTFPTYAMVWYRQAPGKERELVAAITRGGSTYYADSVKGRFTISRDNAKYTVYLQMNSLKPEDTAVYYCAADDPWYEEDYWGQGTQVTVSS,low polyreactivity
2,QVQLVESGGGLVQAGGSLRLSCAASGFTFPWYAMGWYRQAPGKERELVASISYRGDSTYYADSVKGRFTISRDNAKNTVYLQMNSLKPEDTAVYYCNTRLASYYLPGFDYWGQGTQVTVSS,low polyreactivity
3,QVQLVESGGGLVQAGGSLRLSCAASGFTFPYYAMGWYRQAPGKERELVAAISKSGGSTYFADSVKGRFTISRDNAKNTVYLQMNSLKPEDTAVYYCAAQGGSKYRGYYYWGQGTQVTVSS,high polyreactivity
4,QVQLVESGGGLVQAGGSLRLSCAASGFTFPYYAMGWYRQAPVKERELVAAISYNGGSTYYADSVKGRFTISRDNAKNNVYLQMNSLKPEDTAVYYCNAVYYDSGVVGYYYWGQGTQVTVSS,high polyreactivity
5,QVQLVESGGGLVQAGGSLRLSCAASGFTFPYYAVGWYRQAPGKERELVAAISKGGTRTYYADSVKGRFTISRDNAKNTVYLQMNSLKPEDTAVYYCAATRIYQEMDYWGQGTQVTVSS,high polyreactivity
6,QVQLVESGGGLVQAGGSLRLSCAASGFTFQDNAMGWYRHAPGKERELVASITGSGGSTYYADSVKGRFTISRDNAKNTVYLQMNSLKPEDTAVYYCAAETYTRSALVLYGSREMEYWGQGTQVTVSS,low polyreactivity
7,QVQLVESGGGLVQAGGSLRLSCAASGFTFQFYDMGWYRQAPGTEREFVATITSSGGSTYYADSVKGRFTISRDNAKNTVYLQMNSLKPEDPAVYYCANDKLFFYRVGSDYWGQGTQVTVSS,low polyreactivity
8,QVQLVESGGGLVQAGGSLRLSCAASGFTFQRYAMGWYRQAPGKERELVADISRSGGSTYYADSVKGRFTISRDNAKNTVYLQMNSLKPEDTAVYYCAAGYPGYDSYYKFYYWGQGTQVTVSS,high polyreactivity
9,QVQLVESGGGLVQAGGSLRLSCAASGFTFQSYAMGWYRQAPGKERELVATIRTRGGSTSYADSVKGRFTISRDNAKNTVYLQMNSLKPEDTAVYYCNGRLSYRSAWYYGGDRYDYWGQGTQVTVSS,high polyreactivity
10,QVQLVESGGGLVQAGGSLRLSCAASGFTFQTYAMGWYRQAPGKERELVATINSSGGGTYYADSVKGRFTISRDNAKNTVYLQMNSLKPEDTAVYYCAADAVWFVGQAFDISDSTTYGYWGQGTQVTVSS,low polyreactivity
11,QVQLVESGGGLVQAGGSLRLSCAASGFTFQVNTMGWYRQAPGKERELVAAISWSGGSTYYADSVKGRFTISRDNAKNTVYLQMNSLKPEDTAVYYCNAVPVSYRGGYWGQGTQVTVSS,low polyreactivity
12,QVQLVESGGGLVQAGGSLRLSCAASGFTFRANGMGWYRQAPGKERELVATITSGGTTNYADSVKGRFTISRDNAKNTVYFQMNSLKPEDTAVLYCAKRFGPAYFRLYDYWGQGTQVTVSS,low polyreactivity
13,QVQLVESGGGLVQAGGSLRLSCAASGFTFRANGMGWYRQAPGKERELVATITSGGTTNYADSVKGRFTISRDNAKNTVYLQMNSLKPEDTAVYYCAKRFGPAYFRLYDYWGQGTQVTVSS,low polyreactivity
14,QVQLVESGGGLVQAGGSLRLSCAASGFTFRAYAMGWYRPAPAKERELVAAISTGGGSTYYADSVKGRFTISRDIAKHTVYLQLNSLKPEDTAVYYCNALPQRRYYYWGQGTQVTVSS,high polyreactivity
15,QVQLVESGGGLVQAGGSLRLSCAASGFTFRAYAMGWYRQAPGKERELVAAISTGGGSTYYADSVKGRFTISRDNEKNTVYLQMNSLKPEDTAVYYCNALPQRRYYYWGQGTQVTVSS,high polyreactivity
16,QVQLVESGGGLVQAGGSLRLSCAASGFTFRAYTMGWYRQAPGKERELVAAITYSGGRTYYADSVKGRFTISRDNAKNTVYLQMNSLKPEDTAVYYCAKRGWALSEYYYWGQGTQVTVSS,high polyreactivity
17,QVQLVESGGGLVQAGGSLRLSCAASGFTFRENAMGWSRQAPGKERELVAAISSSGGSTYYADSVKGRFTISRDNAKNTVYLQMNSLKPEDTAVYYCAADATLSFDYWGQGTQVTVSS,high polyreactivity
18,QVQLVESGGGLVQAGGSLRLSCAASGFTFRFYAMGWYRQAPGKERELVAVITSRGTRTYYADSVKGRFTISRDNAKNTVYLQMNSLKPEDTAVYFCAKDFAFNGGISKYDYWGQGTQVTVSS,high polyreactivity
19,QVQLVESGGGLVQAGGSLRLSCAASGFTFRFYGMGWYRQAPGKERELVAAISSRGTTTYYADSVKGRFTISRDNAKNTVYLQMNSLKPEDTAVYYCNKEYTTYGYDLEYDYWGLGTQVTVSS,low polyreactivity
20,QVQLVESGGGLVQAGGSLRLSCAASGFTFRGNAMGWYRQAPGKERELVAAITSSDDSTYYADSVKGRFTISRDNAKNTVYLQMNSLKPEDTAVYYCAVYFFSFWGQGTQVTVSS,low polyreactivity
21,QVQLVESGGGLVQAGGSLRLSCAASGFTFRGYAMGWYRQAPGKERELVASISYRGDSTYYADSVKGRFTISRDNAKNTVYLQMNSLKPADTAGYYCNKLLASYYLPGFDYWGQGTQVTVSS,low polyreactivity
22,QVQLVESGGGLVQAGGSLRLSCAASGFTFRGYAMGWYRQAPGKERELVAVISSGGSTNYADSVKGRFTISRDNAKNTVYLQMNSLKPEDTAVYYCNAGYWFRYYGGDYYLGGLNYYWGQGTQVTVSS,low polyreactivity

row,Sequence,polyreactivity (PSR sort gate)
1,QVQLVESGGGLVQAGGSLRLSCAASGFTFRGYDMGWYRQAPGKERELVATISSGGRTYYADSVKGRFTISRDNAKNTVYLQMNSLKPEDTAVYYCAAPRFGRLAFDFWGQGSQVTVSS,low polyreactivity
2,QVQLVESGGGLVQAGGSLRLSCAASGFTFRGYTMGWYRQAPGKERELVAAITRSGTTTYYADSVKGRFTISRDNAKNTVYLQMNSLKPEDTAVYYCATAKFYRQYGYWGQGTQVTVSS,high polyreactivity
3,QVQLVESGGGLVQAGGSLRLSCAASGFTFRHNTMGWYRQAPGKERELVAAISIGGRTYYADSVKGRFTISRDNAKNTVYLQMNSLKPEDTAVYYCAKLSRGQSPGYDYWGQGTQVTVSS,high polyreactivity
4,QVQLVESGGGLVQAGGSLRLSCAASGFTFRHYAMGWYRQAPGKERELVARIRGGGVSTYYADSVKGRFTISRDNAKNTVYLQMNSLKPEDTAVYYCNAVYESWWGDYDYWGQGTQVTVSS,high polyreactivity
5,QVQLVESGGGLVQAGGSLRLSCAASGFTFRIYAMGWYRQAPGKERELVAAISWAGGSTFYADSVKGRFTISRDNAKNTVYLQMNSLKPEDTAVYYCAADTAFHYDYWGQGTQVTVSS,low polyreactivity
6,QVQLVESGGGLVQAGGSLRLSCAASGFTFRLNAMGWYRQAPGKEREMVAAISSSGGRTYYADSVKGRFTISRDNAKNTVYLQLNSLKPEDTAVYYCAADYTTRYLDGVVARGYYWGQGTQVTVSS,high polyreactivity
7,QVQLVESGGGLVQAGGSLRLSCAASGFTFRLYAMGWYRQAPGKERELVATITRRGGITTYADSVKGRFTISRDNAKNTVYLQMNSLKPEDTAVYYCNAGKYVYATSQYDYWGQGTQVTVSS,high polyreactivity
8,QVQLVESGGGLVQAGGSLRLSCAASGFTFRLYTMGWYRQAPGKERELVAAITYSGDSTYYADSVKGRFTISRDYAKNTVYLQMNSLKPEDTAVYYCAARKYYARYYWGQGSQVTVSS,high polyreactivity
9,QVQLVESGGGLVQAGGSLRLSCAASGFTFRNYAMGGYRQAPGKERELVAAISKSGGSTYYADSVKGRFTISRDNAKNTVYLQMNSLNPEDTAVYYCATDYLYVYGFEYYYWGQGTQVTVSS,high polyreactivity
10,QVQLVESGGGLVQAGGSLRLSCAASGFTFRQYAMGWYRQAPGKEREFFADITFSGDNTRYADSVKGRFTISRDNAKNTVYLQMNSLKPEDTGVYYCNADYLVSWLQFDYWGQGTQVTVSS,low polyreactivity
11,QVQLVESGGGLVQAGGSLRLSCAASGFTFRRNAMGWYIQAPGKERELVAAINVRDGSTYYADSVKGRFTISRDNAKNTVYLQMNSLKPEDTAVYYCAAEFFQGYYWYYYWGQGTQVTVSS,high polyreactivity
12,QVQLVESGGGLVQAGGSLRLSCAASGFTFRRNAMGWYRKAPGKERELVAAISSSGGSTNYADSVKGRFTISRDNAKNTVYLQMNSLKPEDTAVYYCNRGSRRLGSIVWYDYWGQGTQVTVSS,high polyreactivity
13,QVQLVESGGGLVQAGGSLRLSCAASGFTFRRNAMGWYRQAPGKERELVAAISRGGSSTYYADSVKGRFTISRDNAKNTVYLQMNSLKPEDTAVYYCGARIPNQQGYGYWGQVTQVTVSS,high polyreactivity
14,QVQLVESGGGLVQAGGSLRLSCAASGFTFRRYAMGWYRQAPGKEREFVAAITTRGSNTYYADSVKGRFTISRDNAKNTVYLQMNSLKPEDTAVYYCAASYYPPGHYDYWGQGTQVTVSS,high polyreactivity
15,QVQLVESGGGLVQAGGSLRLSCAASGFTFRRYAMGWYRQAPGKERELVAAISTSGGRTYYADSVKGRFTISRDNAKNTVYLQMNSLKPEDTAVYYCAARIPKQRDVRGSGMNYWGQGTQVTVSS,high polyreactivity
16,QVQLVESGGGLVQAGGSLRLSCAASGFTFRRYAMGWYRQAPGKERELVAAITRGGSTYYADSVKGRFTISRDNAKNTVYLQMNSLKPEDTAVYYCAARGGTRYSTRSYGYWGQGTQVTVSS,high polyreactivity
17,QVQLVESGGGLVQAGGSLRLSCAASGFTFRRYAMGWYRQAPGKERELVAGITGRGGSTYYADSVKGRFTISRDNAKNTVYLQMNSLKPEDTAVYYCNKPRAARGYLTGQLDYWGQGTQVTVSS,high polyreactivity
18,QVQLVESGGGLVQAGGSLRLSCAASGFTFRRYAMGWYRQAPGKERELVASIASSTGGSTYADSVKGRFTISRDNAKNTVYLQMNSLKPEDTAVYSCAADWSRFYLGHRTGSGYEYWGQGTQVTVSS,low polyreactivity
19,QVQLVESGGGLVQAGGSLRLSCAASGFTFRSNAMGWYRQAPGKARELVAAISYSGDSTYYADSVKGRFTISRDTAKNTVYLQMNSLKPEDTAVYYCAADGYDQWGRVGVYLIWTSYDYWGQGTQVTVSS,high polyreactivity
20,QVQLVESGGGLVQAGGSLRLSCAASGFTFRSNAMGWYRQAPGKVRELVAAISYSGDSTYYADSVKGRFTISRDNAMNTVYLQMNSLKPEDTAVYYCNAVGSGYRSWYDYWGQGTQVTVSS,high polyreactivity
21,QVQLVESGGGLVQAGGSLRLSCAASGFTFRTYAMGWYRQAPGKERELVAAISKSGGSTYYADSVKGRFTISRDNAKNTVYLQMNSLTPEDTAVYYCNAGEASWFSLHYYWGQGTQVTVSS,high polyreactivity
